{"source": "patent US11491212", "molecular_target": "Factor X (FX), P00742", "sequence (P00742 whole entry, looked up)": "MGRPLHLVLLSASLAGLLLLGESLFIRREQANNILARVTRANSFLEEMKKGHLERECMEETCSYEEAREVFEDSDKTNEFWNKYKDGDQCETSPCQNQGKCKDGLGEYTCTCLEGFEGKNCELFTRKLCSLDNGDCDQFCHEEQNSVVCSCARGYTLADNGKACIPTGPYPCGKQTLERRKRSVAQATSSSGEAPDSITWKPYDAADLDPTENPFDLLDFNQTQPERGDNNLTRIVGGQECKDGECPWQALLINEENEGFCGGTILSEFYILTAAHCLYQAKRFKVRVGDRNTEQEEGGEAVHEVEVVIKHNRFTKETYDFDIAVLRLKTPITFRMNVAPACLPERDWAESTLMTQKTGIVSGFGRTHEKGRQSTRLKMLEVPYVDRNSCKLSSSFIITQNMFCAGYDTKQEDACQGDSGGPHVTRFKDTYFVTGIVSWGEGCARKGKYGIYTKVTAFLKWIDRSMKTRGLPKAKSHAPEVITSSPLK", "note": "Where “and” joins values, the source holds several entries; their conditions need not be identical. Equal values may be shown once.", "data": [{"protein": "FIXa-D203N/F205T/R338E/R403E (protein) chain 1: not shown chain 2: not shown", "values": [{"measurement": "KM", "value": 0.0511, "unit": "µM"}, {"measurement": "KM for FX activation by FIXa in the Xase complex (FVIIIa/PC-PS/Ca2+), fluorogenic Spectrafluor FXa assay", "value": 0.0511, "unit": "µM"}, {"measurement": "kcat", "value": 0.9, "unit": "s⁻¹"}]}, {"protein": "FIXa-D104N/K106S/R318Y/R338E/E410N (protein) chain 1: not shown chain 2: not shown", "values": [{"measurement": "% of WT kcat/KM", "value": "581% and 564%"}, {"measurement": "KM", "value": 0.0189, "unit": "µM"}, {"measurement": "KM for FX activation by FIXa in the Xase complex (FVIIIa/PC-PS/Ca2+), fluorogenic Spectrafluor FXa assay", "value": 0.0189, "unit": "µM"}, {"measurement": "kcat", "value": 4.8, "unit": "s⁻¹"}]}, {"protein": "FIXa-Y155F/R318Y/R338E/E410N (protein) chain 1: not shown chain 2: not shown", "values": [{"measurement": "% of WT kcat/KM", "value": "835% and 810%"}, {"measurement": "KM", "value": 0.016, "unit": "µM"}, {"measurement": "KM for FX activation by FIXa in the Xase complex (FVIIIa/PC-PS/Ca2+), fluorogenic Spectrafluor FXa assay", "value": 0.016, "unit": "µM"}, {"measurement": "kcat", "value": 5.6, "unit": "s⁻¹"}]}, {"protein": "FIXa-K228N/R318Y/E410N (protein) chain 1: not shown chain 2: not shown", "values": [{"measurement": "% of WT kcat/KM", "value": "272% and 264%"}, {"measurement": "KM", "value": 0.042, "unit": "µM"}, {"measurement": "KM for FX activation by FIXa in the Xase complex (FVIIIa/PC-PS/Ca2+), fluorogenic Spectrafluor FXa assay", "value": 0.042, "unit": "µM"}, {"measurement": "kcat", "value": 5, "unit": "s⁻¹"}]}, {"protein": "FIXa-R318Y/R403E/E410N (protein) chain 1: not shown chain 2: not shown", "values": [{"measurement": "% of WT kcat/KM", "value": "59% and 54%"}, {"measurement": "KM", "value": 0.0942, "unit": "µM"}, {"measurement": "KM for FX activation by FIXa in the Xase complex (FVIIIa/PC-PS/Ca2+), fluorogenic Spectrafluor FXa assay", "value": 0.0883, "unit": "µM"}, {"measurement": "kcat", "value": 2.3, "unit": "s⁻¹"}, {"measurement": "kcat/KM", "value": "2.7e+07", "unit": "M⁻¹ s⁻¹"}]}, {"protein": "FIXa-Y155F/R318Y/R403E/E410N (protein) chain 1: not shown chain 2: not shown", "values": [{"measurement": "% of WT kcat/KM", "value": 78, "unit": "%"}, {"measurement": "KM", "value": 0.111, "unit": "µM"}, {"measurement": "kcat", "value": 2.9, "unit": "s⁻¹"}]}, {"protein": "FIXa-R318Y/R338E/R403E/E410N (protein) chain 1: not shown chain 2: not shown", "values": [{"measurement": "% of WT kcat/KM", "value": "262% and 320%"}, {"measurement": "KM", "value": 0.0432, "unit": "µM"}, {"measurement": "KM for FX activation by FIXa in the Xase complex (FVIIIa/PC-PS/Ca2+), fluorogenic Spectrafluor FXa assay", "value": 0.0455, "unit": "µM"}, {"measurement": "kcat", "value": 5.8, "unit": "s⁻¹"}, {"measurement": "kcat/KM", "value": "1.2e+08", "unit": "M⁻¹ s⁻¹"}]}, {"protein": "FIXa-A103N/N105S/R318Y/R338E/R403E/E410N (protein) chain 1: not shown chain 2: not shown", "values": [{"measurement": "% of WT kcat/KM", "value": "327% and 318%"}, {"measurement": "KM", "value": 0.0447, "unit": "µM"}, {"measurement": "KM for FX activation by FIXa in the Xase complex (FVIIIa/PC-PS/Ca2+), fluorogenic Spectrafluor FXa assay", "value": 0.0447, "unit": "µM"}, {"measurement": "kcat", "value": 5.4, "unit": "s⁻¹"}]}, {"protein": "FIXa-D104N/K106S/R318Y/R338E/R403E/E410N (protein) chain 1: not shown chain 2: not shown", "values": [{"measurement": "% of WT kcat/KM", "value": "377% and 366%"}, {"measurement": "KM", "value": 0.0385, "unit": "µM"}, {"measurement": "KM for FX activation by FIXa in the Xase complex (FVIIIa/PC-PS/Ca2+), fluorogenic Spectrafluor FXa assay", "value": 0.0385, "unit": "µM"}, {"measurement": "kcat", "value": 5.7, "unit": "s⁻¹"}]}, {"protein": "FIXa-Y155F/R318Y/R338E/R403E/E410N (protein) chain 1: not shown chain 2: not shown", "values": [{"measurement": "% of WT kcat/KM", "value": "418% and 406%"}, {"measurement": "KM", "value": 0.0304, "unit": "µM"}, {"measurement": "KM for FX activation by FIXa in the Xase complex (FVIIIa/PC-PS/Ca2+), fluorogenic Spectrafluor FXa assay", "value": 0.0304, "unit": "µM"}, {"measurement": "kcat", "value": 5.3, "unit": "s⁻¹"}]}, {"protein": "FIXa-A103N/N105S/Y155F/R318Y/R338E/R403E/E410N (protein) chain 1: not shown chain 2: not shown", "values": [{"measurement": "% of WT kcat/KM", "value": "283% and 274%"}, {"measurement": "KM", "value": 0.0507, "unit": "µM"}, {"measurement": "KM for FX activation by FIXa in the Xase complex (FVIIIa/PC-PS/Ca2+), fluorogenic Spectrafluor FXa assay", "value": 0.0507, "unit": "µM"}, {"measurement": "kcat", "value": 6.4, "unit": "s⁻¹"}]}, {"protein": "FIXa-D104N/K106S/Y155F/R318Y/R338E/R403E/E410N (protein) chain 1: not shown chain 2: not shown", "values": [{"measurement": "% of WT kcat/KM", "value": "394% and 382%"}, {"measurement": "KM", "value": 0.048, "unit": "µM"}, {"measurement": "KM for FX activation by FIXa in the Xase complex (FVIIIa/PC-PS/Ca2+), fluorogenic Spectrafluor FXa assay", "value": 0.048, "unit": "µM"}, {"measurement": "kcat", "value": 8.5, "unit": "s⁻¹"}]}]}
